Where a chain is given by its changes, count along the chain named. Values belong to the binder of their own block, whether it stands above or below them.
Experiments:
activin A = target: T1, activin A (UniProt P08476 311-426); assay: cell-based or functional assay
T1 sequence (looked up): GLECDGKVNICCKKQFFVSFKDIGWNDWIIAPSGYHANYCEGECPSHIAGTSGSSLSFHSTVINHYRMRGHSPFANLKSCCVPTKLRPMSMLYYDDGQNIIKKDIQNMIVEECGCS

GDF11 [1] = target: T2, GDF11 (UniProt O95390 299-407); assay: cell-based or functional assay
T2 sequence (looked up): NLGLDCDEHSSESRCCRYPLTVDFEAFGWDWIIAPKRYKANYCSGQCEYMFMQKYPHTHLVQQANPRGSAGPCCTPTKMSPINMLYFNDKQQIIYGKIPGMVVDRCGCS

GDF11 [2] = target: T2, GDF11; assay: Biacore, receptor captured by anti-Fc
Method: (§1) A Biacore™-based binding assay was used to compare ligand binding selectivity of the ALK4-Fc:ActRIIB-Fc heterodimeric complex described above with that of ActRIIB-Fc and ALK4-Fc homodimer complexes. The ALK4-Fc:ActRIIB-Fc heterodimer, ActRIIB-Fc homodimer, and ALK4-Fc homodimer were independently captured onto the system using an anti-Fc antibody. Ligands were injected and allowed to flow over the captured receptor protein. Results are summarized in the table below, in which ligand off-rates (kd) most indicative of effective ligand traps are denoted in bold font.

GDF11 [3] = target: T2, GDF11; assay: Biacore, receptor captured by anti-Fc; footnote: very low signal
Method: as §1

[4] = target: T3, ALK4-Fc:ActRIIB-Fc heterodimer (human, UniProt P36896 24-126; Q13705 20-134); assay: Biacore, receptor captured by anti-Fc
T3 construct: also called ALK4-Fc:ActRIIB-Fc heterodimeric complex; ALK4:ActRIIB heterodimer; not shown: Linkers (TGGG on ALK4, GGG on ActRIIB) and the engineered Fc pair; They differ only in Fc substitutions
T3 sequence 1: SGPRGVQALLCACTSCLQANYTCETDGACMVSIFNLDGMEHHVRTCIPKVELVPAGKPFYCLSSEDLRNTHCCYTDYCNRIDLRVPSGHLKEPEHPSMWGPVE
T3 sequence 2: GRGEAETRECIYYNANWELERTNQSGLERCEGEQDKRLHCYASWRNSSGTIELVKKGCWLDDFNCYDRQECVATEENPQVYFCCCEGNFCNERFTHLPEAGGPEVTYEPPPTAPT
Method: as §1

KI, cell-based assay (activin A): ~1000 nM
KI, cell-based assay (GDF11 [1]): ~1000 nM
B1: ActRIIB-Fc A64 20-134 (Fc fusion)
chain: GRGEAETRECIYYNANWELERTNQSGLERCEGEQDKRLHCYASWANSSGTIELVKKGCWLDDFNCYDRQECVATEENPQVYFCCCEGNFCNERFTHLPEAGGPEVTYEPPPTAPTGGGTHTCPPCPAPELLGGPSVFLFPPKPKDTLMISRTPEVTCVVVDVSHEDPEVKFNWYVDGVEVHNAKTKPREEQYNSTYRVVSVLTVLHQDWLNGKEYKCKVSNKALPVPIEKTISKAKGQPREPQVYTLPPSREEMTKNQVSLTCLVKGFYPSDIAVEWESNGQPENNYKTTPPVLDSDGSFFLYSKLTVDKSRWQQGNVFSCSVMHEALHNHYTQKSLSLSPGK

Kd [4]: 2.7 nM
koff [4]: 0.0055 s⁻¹
kon [4]: 2e+06 M⁻¹ s⁻¹
B4: BMP6 (ligand, UniProt P22004 375-513, looked up)
chain: SASSRRRQQSRNRSTQSQDVARVSSASDYNSSELKTACRKHELYVSFQDLGWQDWIIAPKGYAANYCDGECSFPLNAHMNATNHAIVQTLVHLMNPEYVPKPCCAPTKLNAISVLYFDDNSNVILKKYRNMVVRACGCH

Continued, binder first:

B2: ActRIIB(20-134)-hFc (Fc fusion)
chain: B1 chain with A45R
KI, cell-based assay (activin A): ~10 nM
KI, cell-based assay (GDF11 [1]): ~10 nM

B3: ALK4-Fc homodimer (Fc fusion)
chain: T3 sequence 1
notes: not shown: linker and Fc of the homodimer not specified
kon (GDF11 [2]): 4.8e+06 M⁻¹ s⁻¹
Kd (GDF11 [3]): 0.27 nM

Source: patent US20200384080A1 (published 2020)
